Reference: patent publication US20260217860A1 (BIOCYTOGEN PHARMACEUTICALS BEIJING, published 2026)

B1: E-9A6-M-11E8 (bispecific antibody)
heavy 1: not shown
heavy 2: QVQLVQSGGGVVQPGRSLRLSCAASGFTFSSYAMHWVRQAPGKGLEWVAVISDDGINKYYADSVKGRFTISRDNSKNTLYLQMNSLRAEDSAVYYCARALPTIFGVVMYFYYGLDVWGQGTTATVSSASTKGPSVFPLAPSSKSTSGGTAALGCLVKDYFPEPVTVSWNSGALTSGVHTFPAVLQSSGLYSLSSVVTVPSSSLGTQTYICNVNHKPSNTKVDKKVEPKSCDKTHTCPPCPAPELLGGPSVFLFPPKPKDTLMISRTPEVTCVVVDVSHEDPEVKFNWYVDGVEVHNAKTKPREEQYNSTYRVVSVLTVLHQDWLNGKEYKCKVSNKALPAPIEKTISKAKGQPREPQVCTLPPSREEMTKNQVSLSCAVKGFYPSDIAVEWESNGQPENNYKTTPPVLDSDGSFFLVSKLTVDKSRWQQGNVFSCSVMHEALHNHYTQKSLSLSPGK
light: not shown
notes: Knobs-into-holes bispecific with a common light chain; also called anti-EGFR/MUC1 bispecific antibody
B2: E-9F3-M-11E8 (bispecific antibody)
heavy 1: not shown
heavy 2: B1 heavy 2
light: not shown
notes: as for B1
B3: E-9D2-M-11E8 (bispecific antibody)
heavy 1: not shown
heavy 2: B1 heavy 2
light: not shown
notes: as for B1
B4: E-6C4-M-11E8 (bispecific antibody)
heavy 1: not shown
heavy 2: B1 heavy 2
light: not shown
notes: as for B1
B5: E-9H2-M-11E8 (bispecific antibody)
heavy 1: not shown
heavy 2: B1 heavy 2
light: not shown
notes: Knobs-into-holes bispecific with a common light chain; also called anti-EGFR/MUC1 bispecific antibody; E-9H2-M-llE8

How the values were obtained:
[1] = target: T1, His-tagged human EGFR protein (hEGFR-His, ACROBiosystems Inc., Cat #: EGR-H5222) (human, UniProt P00533 25-645); assay: SPR, Biacore 8K, 1:1 fit;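 also: His-tagged targets captured on the chip at roughly 100 RU, antibody analytes flowed at 1 µg/mL in HBS-EP+ pH 7.4, 50 s association, 400 s dissociation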
T1 construct: Bought protein; not shown: His tag

[2] = target: T2, His-tagged monkey EGFR protein (fasEGFR-His, ACROBiosystems Inc., Cat #: EGR-C52H1) (monkey); assay: SPR, Biacore 8K, 1:1 fit;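 also: His-tagged targets captured on the chip at roughly 100 RU, antibody analytes flowed at 1 µg/mL in HBS-EP+ pH 7.4, 50 s association, 400 s dissociation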
T2 construct: Bought protein
Method: Specifically, his-tagged proteins were diluted to 200 nM, with 1×HBS-EP+buffer (PH 7.4) and then injected into the Biacore™ 8K biosensor at 10 μL/min for about 50 seconds to achieve a desired protein density (e.g., about 100 response units (RU)). Purified antibodies at 1 μg/mL in 1× HBS-EP+buffer (PH 7.4) were then injected at 10 μL/min for 50 seconds.
Dissociation was monitored for 400 seconds. The chip was regenerated after the last injection of each titration with a glycine solution (pH 1.5) at 30 L/min for 30 seconds.

[3] = target: T3, His-tagged human MUC1 protein hMUC1(961-1152)-His (human, UniProt P15941 961-1152); assay: SPR, Biacore 8K, 1:1 fit;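 also: His-tagged targets captured on the chip at roughly 100 RU, antibody analytes flowed at 1 µg/mL in HBS-EP+ pH 7.4, 50 s association, 400 s dissociation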
T3 construct: also called hMUC(961-1152)-His; not shown: His tag

[4] = target: T4, His-tagged monkey MUC1 (fasMUC1-His) (monkey, UniProt Q29435 181-380, limits assumed); assay: SPR, Biacore 8K, 1:1 fit;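 also: His-tagged targets captured on the chip at roughly 100 RU, antibody analytes flowed at 1 µg/mL in HBS-EP+ pH 7.4, 50 s association, 400 s dissociation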
T4 construct: not shown: His tag
T4 chain: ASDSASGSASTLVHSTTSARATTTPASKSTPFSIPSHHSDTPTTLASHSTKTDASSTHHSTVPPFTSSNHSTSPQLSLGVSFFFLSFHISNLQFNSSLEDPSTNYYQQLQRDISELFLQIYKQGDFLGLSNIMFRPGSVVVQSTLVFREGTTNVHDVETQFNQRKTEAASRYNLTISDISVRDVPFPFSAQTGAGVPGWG

[5] = target: T5, human MUC1 (484 amino acids) on CHO-S-hMUC1 (484AA) cells (human, UniProt P15941 24-1158); assay: flow cytometry, transfected CHO-S cells, 5 ug/mL
T5 construct: CHO cells transfected with vectors expressing 484 amino acids of human MUC1
Method: (§1) The anti-EGFR/MUC1 bispecific antibodies (5 μg/mL) were added to the 96-well plate, and incubated at 4° C. for 30 min. […] For the negative control (NC), only cells were added and no antibodies were added.

[6] = target: T6, monkey (Macaca fascicularis) MUC1 on CHO-S-fasMUC1 cells (monkey (Macaca fascicularis)); assay: flow cytometry, transfected CHO-S cells, 5 ug/mL
T6 construct: CHO-S cells transfected with vectors expressing fasMUC1; also called monkey MUC1
T6 chain: T4 chain
Method: as §1

[7] = target: T7, human EGFR on CHO-S-hEGFR cells (human, UniProt P00533 25-645); assay: flow cytometry, transfected CHO-S cells, 5 ug/mL
T7 construct: CHO-S cells transfected with vectors expressing hEGFR
Method: as §1

[8] = target: T8, monkey EGFR on CHO-S-fasEGFR cells (monkey, UniProt P55245 25-645); assay: flow cytometry, transfected CHO-S cells, 5 ug/mL
T8 construct: CHO-S cells transfected with vectors expressing fasEGFR
Method: as §1

| Binder | Kd [1] | koff [1] | kon [1] | Kd [2] | koff [2] | kon [2] | Kd [3] | koff [3] | kon [3] | Kd [4] | koff [4] | kon [4] | Percentage of Positive Cells (%) [5] | Percentage of Positive Cells (%) [6] | Percentage of Positive Cells (%) [7] | Percentage of Positive Cells (%) [8] |
| --- | --- | --- | --- | --- | --- | --- | --- | --- | --- | --- | --- | --- | --- | --- | --- | --- |
| B1 | 5.54 nM | 0.00101 s⁻¹ | 183000 M⁻¹ s⁻¹ | 5.44 nM | 0.00116 s⁻¹ | 213000 M⁻¹ s⁻¹ | 9.99 nM | 0.00218 s⁻¹ | 218000 M⁻¹ s⁻¹ | 40.5 nM | 0.0162 s⁻¹ | 401000 M⁻¹ s⁻¹ | 93.5% | 45.1% | 63.3% | 23% |
| B2 | 28.7 nM | 0.00203 s⁻¹ | 70700 M⁻¹ s⁻¹ | 28.7 nM | 0.00193 s⁻¹ | 67100 M⁻¹ s⁻¹ | 2.63 nM | 0.000881 s⁻¹ | 336000 M⁻¹ s⁻¹ | 25.7 nM | 0.011 s⁻¹ | 426000 M⁻¹ s⁻¹ | 94.2% | 45.5% | 58.8% | 20.5% |
| B3 | 59.5 nM | 0.02 s⁻¹ | 337000 M⁻¹ s⁻¹ | 52.2 nM | 0.0248 s⁻¹ | 476000 M⁻¹ s⁻¹ | 2.79 nM | 0.000543 s⁻¹ | 195000 M⁻¹ s⁻¹ | 19.1 nM | 0.00896 s⁻¹ | 470000 M⁻¹ s⁻¹ | 93.8% | 47% | 50.1% | 16.8% |
| B4 | 91.8 nM | 0.0264 s⁻¹ | 287000 M⁻¹ s⁻¹ | 79.3 nM | 0.0291 s⁻¹ | 367000 M⁻¹ s⁻¹ | 2.66 nM | 0.00109 s⁻¹ | 410000 M⁻¹ s⁻¹ | 25.7 nM | 0.0102 s⁻¹ | 398000 M⁻¹ s⁻¹ | 94% | 48.2% | 48.1% | 18.3% |
| B5 | 88.3 nM | 0.0157 s⁻¹ | 178000 M⁻¹ s⁻¹ | 80.1 nM | 0.0173 s⁻¹ | 215000 M⁻¹ s⁻¹ | 6.19 nM | 0.000571 s⁻¹ | 92300 M⁻¹ s⁻¹ | 2.69 nM | 0.00105 s⁻¹ | 389000 M⁻¹ s⁻¹ | 94% | 47% | 49.3% | 15.1% |
